# Laboratory results from US20260183408A1, “POLYPEPTIDE AND USE THEREOF” (SHENZHEN CHENYANG BIOLOGICAL TECHNOLOGY CO., LTD, priority 2022, published 2026).
# How the values were obtained:
# [1] = target: T1, D2R/5-HT2CR complex (Mus musculus, UniProt P34968); assay: Co-immunoprecipitation of hippocampal tissue of polypeptide-treated SPS mice; assay type: in vivo; settings: intraperitoneal, 1.5 h (FIG. 7 left)
# T1 construct: from tissue
# T1 sequence (P34968 33-459): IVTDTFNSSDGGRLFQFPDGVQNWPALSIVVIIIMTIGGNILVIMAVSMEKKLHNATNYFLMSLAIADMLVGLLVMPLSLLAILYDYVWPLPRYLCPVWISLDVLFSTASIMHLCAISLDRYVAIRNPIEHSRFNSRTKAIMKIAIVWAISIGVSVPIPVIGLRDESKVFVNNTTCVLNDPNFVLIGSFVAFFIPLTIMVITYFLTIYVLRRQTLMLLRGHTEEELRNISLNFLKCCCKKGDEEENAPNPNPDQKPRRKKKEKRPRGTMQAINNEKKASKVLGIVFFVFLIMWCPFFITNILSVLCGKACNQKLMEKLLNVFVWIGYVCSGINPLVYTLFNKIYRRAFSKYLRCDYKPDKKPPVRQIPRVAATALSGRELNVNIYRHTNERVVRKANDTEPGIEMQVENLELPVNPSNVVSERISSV
# Method: (§1) Co-immunoprecipitation was performed using protein samples (with 100-500 μg protein) from the hippocampal tissue of the Balb/c mice. Mouse monoclonal antibodies against both 5-HT2CR and D2R, D2R, or 5-HT2CR were used for precipitation with 25 μl of the slurry of protein A/G+agarose beads (SantaCruz Biotechnology, sc-2001).
# (§2) Western blotting analysis after precipitation: Denatured (at 100° C. for 10 min) proteins were separated on an 8% SDS-PAGE gel, then transferred to a nitrocellulose membrane, which was then blocked with skim milk in TBST (Tris-buffered saline with 0.1% Tween 20). Next, incubation was carried out with the primary antibodies at 4° C. overnight. Finally, treatment with an HRP-conjugated secondary antibody were performed for 1 h, signals were detected using the ECL UltraSignal chemiluminescence kit (4A Biotech, cat. no. 4AW011-500), and the bands were analyzed for densities using the Image Lab software.
# The SPS model was established with male Balb/c mice. […]
# The fear conditioning, safety learning, and recall tests were carried out in two contexts (the fear conditioning and safety learning tests were carried out in context A; and the recall test was carried out in context B). […] After the experiment was completed, the freezing level was manually calculated based on the recorded video. […]
# [2] = target: T2, D2R/5-HT2CR complex (Homo sapiens, UniProt P28335); assay: Co-immunoprecipitation / Western blotting of polypeptide-treated 293T cells; assay type: cell-based; settings: 293T cells transfected with 5-HT2CR and D2R, in the presence of 5-HT2CR and D2R agonists, TAT as control (FIG. 6)
# T2 construct: host or cells: human 293T cells
# T2 sequence (P28335 33-458): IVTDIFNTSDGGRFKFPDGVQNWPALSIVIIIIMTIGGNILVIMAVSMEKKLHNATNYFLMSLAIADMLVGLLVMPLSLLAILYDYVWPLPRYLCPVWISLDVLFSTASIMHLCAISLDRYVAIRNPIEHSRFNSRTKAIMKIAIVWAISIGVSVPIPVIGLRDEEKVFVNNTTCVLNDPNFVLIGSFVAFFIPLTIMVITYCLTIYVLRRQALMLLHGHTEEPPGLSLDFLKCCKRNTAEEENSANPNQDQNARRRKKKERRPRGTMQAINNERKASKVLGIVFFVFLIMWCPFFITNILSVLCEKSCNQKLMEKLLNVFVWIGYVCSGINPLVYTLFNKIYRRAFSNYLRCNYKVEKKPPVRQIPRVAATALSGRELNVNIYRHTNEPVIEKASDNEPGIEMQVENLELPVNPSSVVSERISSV
# Method: as §1, §2
# Next, the 293T cells were treated with TAT-D2R-KL in the presence of 5-HT2CR and D2R agonists, while treatment with TAT was used as a control. The specific process was shown in FIG. 5, where the human 293T cell line was cultured in a high-glucose modified Eagle's medium (DMEM) supplemented with 10% fetal bovine serum (FBS). The cells were maintained in an atmosphere of 95% air and 5% carbon dioxide in an incubator at 37° C. […]
substance,measurement,setting,value
TAT-D2R-KL: C-terminus of the KL (K226-L240) region of D2R fused to the transduction domain of HIV-1 Tat protein (SEQ ID NO: 5),interaction between 5-HT2CR and D2R,[1],decrease
same,interaction between 5-HT2CR and D2R,[2],significantly reduced
